According to patent publication US20150152192A1 (SAMSUNG ELECTRONICS, published 2015):

T1: human Ang2 polypeptide (R&D systems; Accession #O15123; SEQ ID NO: 172) (human, UniProt O15123 19-496)
T1 construct: Bought protein; also called hAng2; human Ang2 protein
T1 sequence: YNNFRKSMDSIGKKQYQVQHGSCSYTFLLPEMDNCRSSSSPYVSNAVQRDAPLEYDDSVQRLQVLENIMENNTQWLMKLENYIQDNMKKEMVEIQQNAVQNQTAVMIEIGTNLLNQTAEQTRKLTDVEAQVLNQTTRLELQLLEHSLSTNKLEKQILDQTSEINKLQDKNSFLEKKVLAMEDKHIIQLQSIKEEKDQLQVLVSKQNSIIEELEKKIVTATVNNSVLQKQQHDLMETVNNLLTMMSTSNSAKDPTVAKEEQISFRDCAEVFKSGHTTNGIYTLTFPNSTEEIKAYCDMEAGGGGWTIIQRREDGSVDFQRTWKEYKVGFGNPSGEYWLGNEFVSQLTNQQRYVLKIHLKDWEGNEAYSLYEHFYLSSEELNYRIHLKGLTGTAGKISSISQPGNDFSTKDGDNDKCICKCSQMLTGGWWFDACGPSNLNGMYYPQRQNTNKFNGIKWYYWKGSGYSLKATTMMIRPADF


Assays:
[1] = target: T2, integrin alpha5beta1 (α5β1; R&D systems) (human, UniProt P08648 42-995; P05556 21-728, limits assumed); test: ELISA: integrin alpha5beta1 coated at 5 ug/ml, FLAG-Ang2 at 10 ug/ml, detection with anti-FLAG-HRP, A450
T2 construct: Bought heterodimer
Method: After that, an anti-FLAG antibody (Sigma) conjugated with horseradish peroxidase (HRP) was added to react, and the plate was washed again five times with PBS-t. Bindings between Ang2 and the above the integrin were identified indirectly by measuring the amounts of the anti-FLAG antibody remaining in the ELISA plate via color development using TMB (3,3,5,5-tetramethylbenzidine) as a substrate of HRP. As positive controls, control antibody 1 (Regeneron Ang2 antibody) and control antibody 2 (Astra Zeneca Ang2 antibody) were used. Also, to show the background, a group coated with BSA instead of integrin was used.

[2] = target: T1, human Ang2 polypeptide (R&D systems; …); test: ELISA, human Ang2 coated, anti-human Fc-HRP; 50% binding concentration
[3] = target: T3, human c-Met/Fc fusion protein (R&D Systems) (human, UniProt P08581 25-932); test: SPR, Biacore T100, bispecific antibody captured by human Fab binder on CM5 chip, c-Met-Fc flowed
T3 construct: also called c-Met-Fc (#358-MT/CF, R&D Systems); human c-Met/Fc protein; not shown: Fc part
Method: For this, a human Fab binder (GE Healthcare) was fixed on the surface of CM5 chip (#BR-1005-30, GE) according to manufacturer's manual. […] Hereto, 10 mM Glycine-HCl (pH 1.5) solution was added, to regenerate the surface. To measure the affinity, the above obtained data were fitted using BIAevaluation software (GE Healthcare, Biacore T100 evaluation software).

T3 sequence (P08581 25-932 limits assumed): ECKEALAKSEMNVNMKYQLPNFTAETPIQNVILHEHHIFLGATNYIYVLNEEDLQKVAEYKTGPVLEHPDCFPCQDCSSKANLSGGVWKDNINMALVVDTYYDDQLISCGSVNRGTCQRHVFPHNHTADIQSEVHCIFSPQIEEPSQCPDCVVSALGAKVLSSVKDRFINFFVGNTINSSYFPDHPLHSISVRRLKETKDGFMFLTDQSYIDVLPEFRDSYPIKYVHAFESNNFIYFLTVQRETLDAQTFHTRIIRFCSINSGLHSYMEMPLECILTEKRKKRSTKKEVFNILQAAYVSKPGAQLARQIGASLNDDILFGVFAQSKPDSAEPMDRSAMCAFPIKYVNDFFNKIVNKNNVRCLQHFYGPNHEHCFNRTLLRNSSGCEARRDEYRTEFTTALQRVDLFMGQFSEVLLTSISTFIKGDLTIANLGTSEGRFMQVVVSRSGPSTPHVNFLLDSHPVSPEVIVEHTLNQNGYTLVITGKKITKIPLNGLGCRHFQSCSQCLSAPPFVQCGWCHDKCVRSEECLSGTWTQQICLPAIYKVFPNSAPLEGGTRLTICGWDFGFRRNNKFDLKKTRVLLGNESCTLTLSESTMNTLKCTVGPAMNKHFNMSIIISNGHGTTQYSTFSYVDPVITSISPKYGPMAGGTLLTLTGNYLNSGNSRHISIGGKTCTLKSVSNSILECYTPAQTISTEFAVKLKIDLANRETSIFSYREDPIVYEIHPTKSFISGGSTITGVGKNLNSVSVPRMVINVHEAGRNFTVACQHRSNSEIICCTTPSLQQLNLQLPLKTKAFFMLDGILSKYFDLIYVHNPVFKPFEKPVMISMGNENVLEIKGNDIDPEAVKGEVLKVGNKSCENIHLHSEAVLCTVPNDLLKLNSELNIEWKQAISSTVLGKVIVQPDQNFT
T2 sequence (P08648 42-995 limits assumed, chain 1 of 2): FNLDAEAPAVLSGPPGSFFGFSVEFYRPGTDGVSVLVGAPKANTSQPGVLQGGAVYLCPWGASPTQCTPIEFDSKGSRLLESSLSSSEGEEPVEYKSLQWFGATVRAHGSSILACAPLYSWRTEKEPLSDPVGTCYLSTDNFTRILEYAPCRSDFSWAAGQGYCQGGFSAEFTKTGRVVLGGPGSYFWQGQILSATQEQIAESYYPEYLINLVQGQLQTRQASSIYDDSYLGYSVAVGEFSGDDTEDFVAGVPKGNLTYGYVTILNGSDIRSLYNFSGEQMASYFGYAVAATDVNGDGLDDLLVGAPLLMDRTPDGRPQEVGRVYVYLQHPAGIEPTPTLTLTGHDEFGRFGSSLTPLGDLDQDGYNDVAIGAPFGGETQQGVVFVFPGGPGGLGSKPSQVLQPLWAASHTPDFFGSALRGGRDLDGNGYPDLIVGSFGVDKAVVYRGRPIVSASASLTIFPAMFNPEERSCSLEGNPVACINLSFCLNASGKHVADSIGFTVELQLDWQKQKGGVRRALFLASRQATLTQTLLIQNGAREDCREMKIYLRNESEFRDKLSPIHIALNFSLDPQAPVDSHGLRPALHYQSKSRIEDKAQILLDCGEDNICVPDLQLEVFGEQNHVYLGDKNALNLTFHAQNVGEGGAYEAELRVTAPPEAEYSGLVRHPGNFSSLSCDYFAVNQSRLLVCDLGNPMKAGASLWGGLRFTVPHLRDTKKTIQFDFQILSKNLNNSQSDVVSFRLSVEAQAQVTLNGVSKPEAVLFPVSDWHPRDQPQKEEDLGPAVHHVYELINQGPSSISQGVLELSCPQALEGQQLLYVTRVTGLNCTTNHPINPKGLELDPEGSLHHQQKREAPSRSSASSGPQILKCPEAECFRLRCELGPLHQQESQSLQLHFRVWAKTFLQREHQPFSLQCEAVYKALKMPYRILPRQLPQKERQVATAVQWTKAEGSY
T2 sequence (P05556 21-728 limits assumed, chain 2 of 2): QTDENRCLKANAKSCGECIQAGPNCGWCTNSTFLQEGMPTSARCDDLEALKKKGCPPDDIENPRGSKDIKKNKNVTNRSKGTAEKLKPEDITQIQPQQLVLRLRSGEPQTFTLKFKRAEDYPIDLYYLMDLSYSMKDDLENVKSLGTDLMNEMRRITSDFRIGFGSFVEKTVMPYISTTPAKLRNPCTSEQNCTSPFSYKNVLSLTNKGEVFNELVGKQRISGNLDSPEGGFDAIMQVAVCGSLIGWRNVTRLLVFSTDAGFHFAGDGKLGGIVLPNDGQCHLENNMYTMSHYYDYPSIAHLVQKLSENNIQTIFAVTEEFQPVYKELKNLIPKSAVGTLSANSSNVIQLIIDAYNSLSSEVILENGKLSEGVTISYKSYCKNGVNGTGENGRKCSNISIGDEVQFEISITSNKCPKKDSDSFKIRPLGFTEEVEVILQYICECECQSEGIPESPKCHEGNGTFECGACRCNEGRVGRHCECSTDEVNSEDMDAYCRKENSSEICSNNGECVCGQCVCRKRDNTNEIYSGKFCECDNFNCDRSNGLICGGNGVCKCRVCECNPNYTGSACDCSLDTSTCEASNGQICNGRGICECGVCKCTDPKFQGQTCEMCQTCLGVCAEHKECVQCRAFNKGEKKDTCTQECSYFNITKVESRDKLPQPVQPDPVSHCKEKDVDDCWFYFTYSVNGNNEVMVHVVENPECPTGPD

Row | binding result [1] | Kd [2] | Kd [3] | koff [3] | kon [3] | Binder
1 | binds | – | – | – | – | FLAG-Tagged hAng2 (ligand, also called FLAG-Ang2; non-mutated Ang2) DYKDDDDKYNNFRKSMDSIGKKQYQVQHGSCSYTFLLPEMDNCRSSSSPYVSNAVQRDAPLEYDDSVQRLQVLENIMENNTQWLMKLENYIQDNMKKEMVEIQQNAVQNQTAVMIEIGTNLLNQTAEQTRKLTDVEAQVLNQTTRLELQLLEHSLSTNKLEKQILDQTSEINKLQDKNSFLEKKVLAMEDKHIIQLQSIKEEKDQLQVLVSKQNSIIEELEKKIVTATVNNSVLQKQQHDLMETVNNLLTMMSTSNSAKDPTVAKEEQISFRDCAEVFKSGHTTNGIYTLTFPNSTEEIKAYCDMEAGGGGWTIIQRREDGSVDFQRTWKEYKVGFGNPSGEYWLGNEFVSQLTNQQRYVLKIHLKDWEGNEAYSLYEHFYLSSEELNYRIHLKGLTGTAGKISSISQPGNDFSTKDGDNDKCICKCSQMLTGGWWFDACGPSNLNGMYYPQRQNTNKFNGIKWYYWKGSGYSLKATTMMIRPADF
2 | – | 31 nM | 0.09 nM | 8.2e-05 s⁻¹ | 850000 M⁻¹ s⁻¹ | anti-c-Met/anti-Ang2 bispecific antibody (anti-Ang2 4-H10 scFv fused to the C-terminus of anti-c-Met antibody L3-1Y-IgG2) (bispecific antibody, also called BS ab; BS Ab) heavy: EVQLVESGGGLVQPGGSLRLSCAASGFTFTDYYMSWVRQAPGKGLEWLGFIRNKANGYTTEYSASVKGRFTISRDNSKNTLYLQMNSLRAEDTAVYYCARDNWFAYWGQGTLVTVSSASTKGPSVFPLAPCSRSTSESTAALGCLVKDYFPEPVTVSWNSGALTSGVHTFPAVLQSSGLYSLSSVVTVPSSNFGTQTYTCNVDHKPSNTKVDKTVERKCCVECPPCPAPPVAGPSVFLFPPKPKDTLMISRTPEVTCVVVDVSHEDPEVQFNWYVDGVEVHNAKTKPREEQFNSTFRVVSVLTVVHQDWLNGKEYKCKVSNKGLPAPIEKTISKTKGQPREPQVYTLPPSREEMTKNQVSLTCLVKGFYPSDIAVEWESNGQPENNYKTTPPMLDSDGSFFLYSKLTVDKSRWQQGNVFSCSVMHEALHNHYTQKSLSLSPGGGGGSGGGGSEVQLLESGGGLVQPGGSLRLSCAASGFTFSSYDMSWVRLAPGKGLEWVSLISPDSSSIYYADSVKGRFTISRDNSKNTLYLQMNSLRAEDTAVYYCAKDLISFWRGGFDYWGQGTLVTVSSGGGGSGGGGSGSGGSQSVLTQPPSASGTPGQRVTISCSGSSSNIGSNYVNWYQQLPGTAPKLLIYSDSHRPSGVPDRFSGSKSGTSASLAISGLRSEDEADYYCGAWDDSLSGYVFGGGTKLTVLGQAGQHHHHHHGAYPYDVPDYAS light: DIQMTQSPSSLSASVGDRVTITCKSSQSLLASGNQNNYLAWYQQKPGKAPKMLIIWASTRVSGVPSRFSGSGSGTDFTLTISSLQPEDFATYYCQQSYSRPYTFGQGTKVEIKRTVAAPSVFIFPPSDEQLKSGTASVVCLLNNFYPREAKVQWKVDNALQSGNSQESVTEQDSKDSTYSLSSTLTLSKADYEKHKVYACEVTHQGLSSPVTKSFNRGEC
